{"source": "paper doi:10.1101/2021.06.01.446691", "molecular_target": "VirB4-like TraB ATPase of the pKM101-encoded type IV secretion system (plasmid pKM101 (carried in E. coli))", "experiment": "cryo-EM structure"}
{"substance": "VirB4-like TraB ATPase of the pKM101-encoded type IV secretion system (enzyme)", "values": [{"measurement": "stoichiometry N", "value": 12}]}
